assay: soluble on expression in E. coli; label from the status in PepcDB or PDB records

Sequence	soluble on expression in E. coli
MAHHHHHHMDEIKWPLRLLQILRNHLEQVDHPHEPRTLPIAAKCGQGGVLAFLTDVDDDVRRRTGASECITACCRGLVLDMIEQCCTLLFLSSKERRVINMAAVQREKRVVARGVGKRRRGDQGETTEETAIGETDNSQRKCAAVLPLEYLLRLFVALPSLLAHYDKLGGSTMPAAFKQPLWNYVNAVLDIMKDMTFLDPSEYIPLR	not soluble
AHHHHHHGSEAWRGRSQAVVDNLAPRVVDMLVPEGFKPTQEEQLSSYDVEKKELATVYMITLVSGSGEKEEEVEEETPTQTETQTPTETRTETKTPTETTTTTPTETKETPTQTTTTQPARTETQGGICGPGLIVLLAALGVLRRRS	not soluble
MAGDPMTYRDFIGRLKENGKLVEIQQPVSPIFEASRIAKKTKGPVLFHNVSGSKVIMNLLGSRDELSSMLGVPKEEIIKKLSEVSPEGEVRLVPGSPTLEVIESEVDLTKLPILTHFEKDGAPYITAGIVVSEYEGVMNASIHRLMLVGKDKLAARLVPPRHTYLLHKKAAEKGETLPVAIVLGCDPTIIYATSTRVPAGKEFEYAAALRGTPVEVFECSNGIKVPHSEIILEGYIDTKERVDEGPFVDITGTYDMVRKEPVIHITRIIHRKDPIYHGILPAGPEHLLMMGVPYEPRIYRAVGEVTTVKNVVLTEGGCCYLHAVVQIEKQTEGDAKNAIMAAFAAHTSLKHVVVVDEDINIFDPNDVEFAIATRVKGDMDILTITNVRGSSLDPRGASDGTTTKVGIDATKVLIEKENFERAIIPEELEHHHHHH	not soluble
AVVNTDDYVTRTSIFYHAGSSRLLTVGDPYFRVPAGGGNKQDIPKVSAYQYRVFRVQLPDPNKFGLPDTSIYNPETQRLVWACAGVEIGRGQPLGVGLSGHPFYNKLDDTESSHAATSNVSEDVRDNVSVDYKQTQLCILGCAPAIGEHWAKGTASKSRPLSQGDCPPLELKNTVLEDGDMVDTGYGAMDFSTLQDTKCEVPLDICQSICKYPDYLQMSADPYGDSMFFCLRREQLFARHFWNRAGTMGDTVPQSLYIKGTGMRASPGSCVYSPSPSGSIVTSDSQLFNKPYWLHKAQGHNNGVCWHNQLFVTVVDTTRSTNLTICASTQSPVPGQYDATKFKQYSRHVEEYDLQFIFQLCTITLTADVMSYIQSMNSSILEDWNGGSGGNKDPYDKLKFWNVDLKEKFSLDLDQYPLGRKFLVQAGL	soluble
MMDLHTHTVYSDGIGLIRDNVAWAEKRGLKIVGISDHIHFFTPSRFSAYINEINVIKEESEIVVLAGIEANILENGPDITDEFRKKLDYAIASVHEWFGRNGTHEYINYVKKAIMDDNVDIIGHFGNSFPWIGYPTREEIDEILDLAEAYGKAFEISARYKVPDLEFIRECVKRGIKLSLATDAHRPEDVGKVSWSLKMLEKAGGTKEDLIFSEYL	soluble
KIVCDFTEYNPLHKGHKYALEKGKEHGIFISVLPGPLERSGRGIPYFLNRYIRAEMAIRAGADIVVEGPPMGIMGSGQYMRCLIKMFYSLGAEIIPRGYIPEKTMEKVIDCINKGYHIQVKPYKIICIETGEILGEKLNIDNYVIASMSQMIYKLNREGLKFNPKFVFVKRLEGISGTKIREAIFSGKFEDIKNMLPKTTLSILKELYDNGKL	not soluble
SNEVKESLRSIEQKYKLFQQQQFTFIAALEHCRENAHDKIRPISSIEQVQSYMEHYCNNSTHRRILIMFMDICSELSKLCQHFEALHSGTPVTNSLLEKCKTLVSQSNDLSSLRAKYPHEVVNHLSCDEARNHYGGVVSLIPIVLDFMKEWIAHSEKLPRKVLQHGTT	soluble
MGSSHHHHHHGGTGENLYFQGGSGMSRVPRPHIHQRISVEDIMKGNRRTLAKAITLAESSNPADSTRLGNLLREIHQMATVRTVPRFALSGSPGSGKSSLLDTLGYYLCEKKNMHVGVLAVDPSSTITHGSILGDKTRMEKLGTHLNSYIRPSPSGGHLGGVTSRAWEALEIFEAARFDVVFVETVGVGQSETQCKDLTDMMILLVPPASGDELQGIKKGVVEVADMVVVTKNDGRRKPLVQQTMSAYARAVMYTEEKQGFEKPVIAVSAEEGTNVPELWEAMLKMWNARLESGQIAHLRRAQSTKHFYNYFEMELLAKARRMTNLEMQNMAHRVWEHEMTPREAGDIMVLRTLREHLAADAAVQHDAGKRA	not soluble
MREVISIHVGQAGVQIGNACWELYCLEHGIQPDGTMPSDQQADGESFTTFFSDTGNGRYVPRSIFVDLEPTVVDEIRTGTYKKLFHPEQMITGKEDAANNYARGHYTVGKELIDTVLDRIRRLADNCSGLQGFFVFHSFGGGTGSGFTSLLMERLSVDYGKKSKLEFSIYPAPQVSTAVVEPYNSILTTHTTLEHSDCAFMVDNEAIYDICRRNLSVDRPSYTNLNRIISQVVSSITASLRFDGALNVDLNEFQTNLVPYPRIHFPLAAYTPLISADKAYHEALSVNDITNSCFEPANQMVKCDPRHGKYMAVCLLYRGDVVPKDVNTAIAAIKTKRTIQFVDWCPTGFKVGINYQPPTVVPGGDLAKVPRAVCMLSNTTAIAEAWSRLDYKFDLMYAKRAFVHWYVGEGMEEGEFTEAREDLAALEKDYEEVGADSNEGGNEEEGEEY	not soluble
YPNVEVFGEVPIQVVNAEPLGMHSNVMEAMFTAITRAKKNVYIETPYFIPTECLLQAIQTASMSGIDVRLVMPKRSDNDFVQYASNSYVEKLLRNKVRVYQYVNGFTHSKLMIVDDELVVVGSANMDIRSLELLFETNLFIYDKKVAQTVRDIYHTDMNNSKELNLRDWLQR	not soluble
PLGVSAAGALDRASLRRANRLVGNASSAAAIESVNGGLTVEAVGDQVIAVTGAPTTLTIESPSWVGSDDDDGGARPGGKRTVPMAAPFALLDGELLTLGAPESGFRNYVAIRGGVDAPEVLGSRSADTMSGIGPAPLAIRQVLATGEQTASTAVGAPELQPDFPGAGVTVLDVVPGPRADWFDQEALDSLCNQEWLVTPQSNRVGMRLDGKPLERTREGELPSEGTMAGALQIPPAGLPVLFLADHPITGGYPVIGVVRDEHLDRAAQVPIGGRIRFRLVPDSADFTTTTTKTPEK	not soluble
MGSDKIHHHHHHMSCKAFQGQTLREHIEAMLAAWEIVKNKYIPSIIRVMKTVGVKFTEEDADKFMKTLIILHDVGKCSEVYQKHLSNNEPLRGFRHELVSAYYAYNILKDMFKDETIAFIGALVVMMHHEPILMGQIRSLDKEELTPEVVLDKLRTFNGVMEGTESFIKSMIKEKLGVIPKVPSPTQEDVLREVIRLSVLARHRPDSGKLRMVVGALLIPLVLCDYKGAKEREGESPKFAEVLRVEMMK	not soluble
MGSDKIHHHHHHMQVIKQKLTATCAQLTGYLHQPDTNAHQTNLPAIIIVPGGSYTHIPVAQAESLAMAFAGHGYQAFYLEYTLLTDQQPLGLAPVLDLGRAVNLLRQHAAEWHIDPQQITPAGFSVGGHIVALYNDYWATRVATELNVTPAMLKPNNVVLGYPVISPLLGFPKDDATLATWTPTPNELAADQHVNSDNQPTFIWTTADDPIVPATNTLAYATALATAKIPYELHVFKHGPHGLALANAQTAWKPDANQPHVAHWLTLALEWLADNR	not soluble
VCSCRLVFCRRTELRVGNCLIGGVSFTYCCTRV	soluble
MSPTVRTARHDDYDDIVDLTSDVWADRAMADYIPDVFRDWVDDDGPNRKTLVVDVDGHAVGLAQAVILTETEAWFQGMRVDSDHRGKGFGSLLTEHLIEWAADAGASVGRSMVFSWNEAGLGQSLAAGFEAVTSFRWAHPDPADETPEMTVRNDPTNAWRYWQESDGRGVLSGLALDSGESWALSTLTRETLDRLAADQTVLTIGDDGPQGMACRVRTTDADGEQLAEYAVGVWSDVDAARALFTAIAADAATLGVDGTRVLIPETPRHVAQAAYASGNIDECPDFVLEIDGLEELS	not soluble
MSLTTNRTRKAGADSEISDLLKTQSELHGRIAAMAETLGTRQTEMSQTLNQRLDGMSQRLGETLTEQTRSTHENLSRLQERLAVIDAAQGNIQDLAKDVVGLQAILSNKQTRGAFGQARMETLIADALPAGAFQLQPTLSNGYRPDCIIKMPNNAPALVIDAKFPLEAWNAIKADETPETKRAAVQQFRRDMEVHIRDVAEKYLIRGETQDTAFIFVPSESIFADIHQHFEYLVQRAHRARVVIVSPSLLMLSVQVIQSVLKDQRMREQAHLIQGEVALLMDDVRRLDDRTRKLQAHFGLAQKDVDMMLISSDKVLARGQKIEGLDFSPTEKEASHGEIEQTRRFAENRAGAAKLRVVDDEEGHHHHHH	soluble
MGSDKIHHHHHHMSDNLPKKQPRTAPPEARREQLIDATITAISTYGLSGTTLAKVTAEAGLSLGLVNFHFKSKEALLTATLTHLADEHRALWFTRSSQPDVSAADKLKLIVDAQFHAKICNRRKLSVWFAFFGESRPRKAYRELTGPLDEERQIATSRLCADIIAEGGYSGIDSDTVSAMLESLFDGFWLNILMYPDRFTRQSAKAQVLSYLRLCFPQHFTCLDAETFA	not soluble
VAFTEKQDALVSSSFEAFKANIPQYSVVFYTSILEKAPAAKDLFSFLANGVDPTNPKLTGHAEKLFALVRDSAGQLKASGTVVADAALGSVHAQKAVTDPQFVVVKEALLKTIKAAVGDKWSDELSRAWEVAYDELAAAIKKA	soluble
MAHHHHHHMEKNQNDKSNKNDIIHMNDKSGNYDKNNINNFIDKNDEHDMSDILHKINNEEKKYEEIKSYSECLELLYKTHALKLGLDNPKKLNESFGHPCDKYKTIHIAGTNGKGSVCYKIYTCLKIKKFKVGLFSSPHIFSLRERIIVNDEPISEKELIHLVNEVLNKAKKLYINPSFFEIITLVAFLHFLNKKVDYAIIETGIGGRLDATNILTKPEVIVITSIGYDHLNILGDNLPIICNEKIGIFKKDANVVIGPSVAIYKNVFDKAKELNCTIHTVVPEPRGERYNEENSRIALRTLEILNISIDYFLKSIIPIKPPLRIQYLATEQIQHIKKKFSPDNLEHNVQYPLAVILDVGHNETAIDRLCTDINYFHKGQNIRICISITKPRNLSVFHPFIAQFGDTLKDIFYLPSLNERTYDFEEIVEMLNNEEEIKNEIKELILSSSKKVGKWLAHEKQGNINEEDALKLYKRGCIPLIIKNAFLECCKDNSILLVCGTFFVFDEVLNVFDIHSDMQDTIFMNEPSLV	soluble
MSQLLLNLEGKTKIKAIARKNDLCERKSSNLHHFCVEFHNNYEFLEIGLSEARSLASISDKNVLNSNRKAENYQKKWKNFEKESILKLNSIMEKISSHSQPSHHHTNASITLPYDATIQKIAEKEKNLSKLLKELSIVDSSLKEEKASFEKTQSALLKEKGKIEKDKLMLREEAQKQASMNAEVQKKELESQERLSVLNKQFMEENEKKVKLEQEELDSKNAYNDCLQLNIPNAESQMITDQLATLDEFYSDLNNNSSNEIMAEIPDFEEIIDLFNQFKSSMESQKDILNTLAGLEEQLGDHQLEIKSVRKDINKLKGLQGKQSFYKEELKLKKSALEEIQRKIDYDQDVLNSLKVVEKAAKPDDYLRPRNSRKESVFRKLPIPERSMQHDSDTLDTRKNSKTMLKNESTRHSNPGIRLLKVPNRDSDEESENSFDDGTTQDESGVNAFFGQLSDEKEESPTAVEFSMAAHLTEFSQRQAAAAAKMNMKTPEKKVVEIESDEDDDLDSSIIAPNRAKSKDDRKSDDSDDDLNDEEGDADQSIWGSDD	not soluble
MGSDKIHHHHHHMANSHDGNAQVLSYPKHPPKDFSDLAATLIRNGLGRVDAETLERHLEQVGYFRLKGYWYQFLSPSSSCDYKHVLPFRKGTQFQQIWCRYIFDQELRTLVFDGIITFEIYLKSFLAHELSLFGGEFGYTKPEGLPELSFDDYLACINSLRASFTKSNLPYLKHFKRTYKDPLPPYWMIVGCLSYGTLKGYFYQGSPDSVKRKLAAKLHIFNPNTNPEVHGDIKILSNWLETIRQVRNMVAHHDRFWNETSTRIVPKLPKHRSGLHANEWWGNDWDAFRTDSTGPAAFLTMENYLLQQIDGSAWKNKFISLMDRYPEILATEMGFPEDWRSLALWS	not soluble
